This is an account of results in patent US20200317768A1 (published 2020).

One may read the Kd as the concentration at which binding is half-saturated.

This assay concerns the target T1, cynomolgus monkey FcγRIIa2 extracellular domain, C-terminal His-tag (cynomolgus monkey).
T1 construct: also called cyno FcγRIIa2; cynoFcgRIIa2; not shown: His-tag added to C-terminus
T1 chain: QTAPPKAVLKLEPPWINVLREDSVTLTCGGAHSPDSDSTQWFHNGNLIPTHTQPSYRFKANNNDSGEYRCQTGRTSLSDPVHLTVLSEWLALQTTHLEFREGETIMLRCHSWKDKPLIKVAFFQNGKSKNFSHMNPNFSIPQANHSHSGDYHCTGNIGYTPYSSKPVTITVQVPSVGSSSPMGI
Briefly: SPR (Biacore), antibody captured, FcgR analyte, 25 C. In general terms: SPR reads the build-up and loss of mass on a sensor chip optically.

B1: MS_M103205H795-SG1/M103202L889-SK1 (antibody, human IgG1, kappa)
heavy: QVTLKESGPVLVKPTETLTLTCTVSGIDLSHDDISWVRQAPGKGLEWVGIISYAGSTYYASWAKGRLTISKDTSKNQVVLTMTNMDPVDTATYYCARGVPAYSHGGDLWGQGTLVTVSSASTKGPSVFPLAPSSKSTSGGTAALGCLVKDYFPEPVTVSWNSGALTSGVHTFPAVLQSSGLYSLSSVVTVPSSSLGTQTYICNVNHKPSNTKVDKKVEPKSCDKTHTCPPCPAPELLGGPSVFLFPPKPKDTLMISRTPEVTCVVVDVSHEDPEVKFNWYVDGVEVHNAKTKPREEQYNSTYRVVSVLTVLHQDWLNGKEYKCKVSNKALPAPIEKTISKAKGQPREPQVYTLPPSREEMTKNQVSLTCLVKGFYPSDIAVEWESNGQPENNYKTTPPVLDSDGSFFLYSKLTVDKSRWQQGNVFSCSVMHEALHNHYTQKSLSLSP
light: DIVMTQSPATLSLSPGERATLSCTSSQSVYHANWLSWFQQKPGQPPKLLIYWASTLAYGVPSRFSGSGSGTDFTLTISSLQPEDAATYYCAGGYGGGRYAFGQGTKVEIKRTVAAPSVFIFPPSDEQLKSGTASVVCLLNNFYPREAKVQWKVDNALQSGNSQESVTEQDSKDSTYSLSSTLTLSKADYEKHKVYACEVTHQGLSSPVTKSFNRGEC
notes: Parent antibody; also called MS1032LO06-SG1
B1 gave a Kd of 5.1 µM.

B2: M103205H795-MY228/M103202L889-SK1 (antibody, human IgG1, kappa)
heavy: QVTLKESGPVLVKPTETLTLTCTVSGIDLSHDDISWVRQAPGKGLEWVGIISYAGSTYYASWAKGRLTISKDTSKNQVVLTMTNMDPVDTATYYCARGVPAYSHGGDLWGQGTLVTVSSASTKGPSVFPLAPSSKSTSGGTAALGCLVKDYFPEPVTVSWNSGALTSGVHTFPAVLQSSGLYSLSSVVTVPSSSLGTQTYICNVNHKPSNTKVDKKVEPKSCDKTHTCPPCPAPELLGYPSVFLFPPKPKDTLMISRTPEVTCVVVDVSDEDPEVKFNWYVDGVEVHNAKTKPREELYNSTYRVVSVLTVLHQDWLNGKEYKCKVSNKALPKPIEKTISKAKGQPREPQVYTLPPSREEMTKNQVSLTCLVKGFYPSDIAVEWESNGQPENNYKTTPPVLDSDGSFFLYSKLTVDKSRWQQGNVFSCSVMHEALHNHYTQKSLSLSP
light: DIVMTQSPATLSLSPGERATLSCTSSQSVYHANWLSWFQQKPGQPPKLLIYWASTLAYGVPSRFSGSGSGTDFTLTISSLQPEDAATYYCAGGYGGGRYAFGQGTKVEIKRTVAAPSVFIFPPSDEQLKSGTASVVCLLNNFYPREAKVQWKVDNALQSGNSQESVTEQDSKDSTYSLSSTLTLSKADYEKHKVYACEVTHQGLSSPVTKSFNRGEC
B2 yielded a Kd of 3.3 µM.

B3: M103205H795-MY142/M103202L889-SK1 (antibody, human IgG1, kappa)
heavy: QVTLKESGPVLVKPTETLTLTCTVSGIDLSHDDISWVRQAPGKGLEWVGIISYAGSTYYASWAKGRLTISKDTSKNQVVLTMTNMDPVDTATYYCARGVPAYSHGGDLWGQGTLVTVSSASTKGPSVFPLAPSSKSTSGGTAALGCLVKDYFPEPVTVSWNSGALTSGVHTFPAVLQSSGLYSLSSVVTVPSSSLGTQTYICNVNHKPSNTKVDKKVEPKSCDKTHTCPPCPAPELLEGPSVFLFPPKPKDTLMISRTPEVTCVVVDVSEEDPEVKFNWYVDGVEVHNAKTKPREEQYNSTYRVVSVLTVLHQDWLNGKEYKCKVSNKALPAPIEKTISKAKGQPREPQVYTLPPSREEMTKNQVSLTCLVKGFYPSDIAVEWESNGQPENNYKTTPMVLDSDGSFFLYSKLTVDKSRWQQGNVFSCSVMHEALHNHYTQKSLSLSP
light: DIVMTQSPATLSLSPGERATLSCTSSQSVYHANWLSWFQQKPGQPPKLLIYWASTLAYGVPSRFSGSGSGTDFTLTISSLQPEDAATYYCAGGYGGGRYAFGQGTKVEIKRTVAAPSVFIFPPSDEQLKSGTASVVCLLNNFYPREAKVQWKVDNALQSGNSQESVTEQDSKDSTYSLSSTLTLSKADYEKHKVYACEVTHQGLSSPVTKSFNRGEC
Molecule B3 displayed a Kd of 4.9 µM.

B4: M103205H795-MY227/M103202L889-SK1 (antibody, human IgG1, kappa)
heavy: QVTLKESGPVLVKPTETLTLTCTVSGIDLSHDDISWVRQAPGKGLEWVGIISYAGSTYYASWAKGRLTISKDTSKNQVVLTMTNMDPVDTATYYCARGVPAYSHGGDLWGQGTLVTVSSASTKGPSVFPLAPSSKSTSGGTAALGCLVKDYFPEPVTVSWNSGALTSGVHTFPAVLQSSGLYSLSSVVTVPSSSLGTQTYICNVNHKPSNTKVDKKVEPKSCDKTHTCPPCPAPELLGYPSVFLFPPKPKDTLMISRTPEVTCVVVDVSDEDPEVKFNWYVDGVEVHNAKTKPREEQYNSTYRVVSVLTVLHQDWLNGKEYKCKVSNKALPKPIEKTISKAKGQPREPQVYTLPPSREEMTKNQVSLTCLVKGFYPSDIAVEWESNGQPENNYKTTPKVLDSDGSFFLYSKLTVDKSRWQQGNVFSCSVMHEALHNHYTQKSLSLSP
light: DIVMTQSPATLSLSPGERATLSCTSSQSVYHANWLSWFQQKPGQPPKLLIYWASTLAYGVPSRFSGSGSGTDFTLTISSLQPEDAATYYCAGGYGGGRYAFGQGTKVEIKRTVAAPSVFIFPPSDEQLKSGTASVVCLLNNFYPREAKVQWKVDNALQSGNSQESVTEQDSKDSTYSLSSTLTLSKADYEKHKVYACEVTHQGLSSPVTKSFNRGEC
Turning to B4, the Kd was found to be 2.5 µM.

B5: M103205H795-MY209/M103202L889-SK1 (antibody, human IgG1, kappa)
heavy: QVTLKESGPVLVKPTETLTLTCTVSGIDLSHDDISWVRQAPGKGLEWVGIISYAGSTYYASWAKGRLTISKDTSKNQVVLTMTNMDPVDTATYYCARGVPAYSHGGDLWGQGTLVTVSSASTKGPSVFPLAPSSKSTSGGTAALGCLVKDYFPEPVTVSWNSGALTSGVHTFPAVLQSSGLYSLSSVVTVPSSSLGTQTYICNVNHKPSNTKVDKKVEPKSCDKTHTCPPCPAPELLNGPSVFLFPPKPKDTLMISRTPEVTCVVVDVSDEDPEVKFNWYVDGVEVHNAKTKPREELYNSTYRVVSVLTVLHQDWLNGKEYKCKVSNTALPKPIEKTISKAKGQPREPQVYTLPPSREEMTKNQVSLTCLVKGFYPSDIAVEWESNGQPENNYKTTPPVLDSDGSFFLYSKLTVDKSRWQQGNVFSCSVMHEALHNHYTQKSLSLSP
light: DIVMTQSPATLSLSPGERATLSCTSSQSVYHANWLSWFQQKPGQPPKLLIYWASTLAYGVPSRFSGSGSGTDFTLTISSLQPEDAATYYCAGGYGGGRYAFGQGTKVEIKRTVAAPSVFIFPPSDEQLKSGTASVVCLLNNFYPREAKVQWKVDNALQSGNSQESVTEQDSKDSTYSLSSTLTLSKADYEKHKVYACEVTHQGLSSPVTKSFNRGEC
In the case of B5, the Kd is 0.63 µM.

B6: M103205H795-MY229/M103202L889-SK1 (antibody, human IgG1, kappa)
heavy: QVTLKESGPVLVKPTETLTLTCTVSGIDLSHDDISWVRQAPGKGLEWVGIISYAGSTYYASWAKGRLTISKDTSKNQVVLTMTNMDPVDTATYYCARGVPAYSHGGDLWGQGTLVTVSSASTKGPSVFPLAPSSKSTSGGTAALGCLVKDYFPEPVTVSWNSGALTSGVHTFPAVLQSSGLYSLSSVVTVPSSSLGTQTYICNVNHKPSNTKVDKKVEPKSCDKTHTCPPCPAPELLGYPSVFLFPPKPKDTLMISRTPEVTCVVVDVSDEDPEVKFNWYVDGVEVHNAKTKPREELYNSTYRVVSVLTVLHQDWLNGKEYKCKVSNKALPKPIEKTISKAKGQPREPQVYTLPPSREEMTKNQVSLTCLVKGFYPSDIAVEWESNGQPENNYKTTPKVLDSDGSFFLYSKLTVDKSRWQQGNVFSCSVMHEALHNHYTQKSLSLSP
light: DIVMTQSPATLSLSPGERATLSCTSSQSVYHANWLSWFQQKPGQPPKLLIYWASTLAYGVPSRFSGSGSGTDFTLTISSLQPEDAATYYCAGGYGGGRYAFGQGTKVEIKRTVAAPSVFIFPPSDEQLKSGTASVVCLLNNFYPREAKVQWKVDNALQSGNSQESVTEQDSKDSTYSLSSTLTLSKADYEKHKVYACEVTHQGLSSPVTKSFNRGEC
Take B6: the Kd was determined as 2.2 µM.

B7: M103205H795-MY219/M103202L889-SK1 (antibody, human IgG1, kappa)
heavy: QVTLKESGPVLVKPTETLTLTCTVSGIDLSHDDISWVRQAPGKGLEWVGIISYAGSTYYASWAKGRLTISKDTSKNQVVLTMTNMDPVDTATYYCARGVPAYSHGGDLWGQGTLVTVSSASTKGPSVFPLAPSSKSTSGGTAALGCLVKDYFPEPVTVSWNSGALTSGVHTFPAVLQSSGLYSLSSVVTVPSSSLGTQTYICNVNHKPSNTKVDKKVEPKSCDKTHTCPPCPAPELLGYPSVFLFPPKPKDTLMISRTPEVTCVVVDVSDEDPEVKFNWYVDGVEVHNAKTKPREEQYNSTYRVVSVLTVLHQDWLNGKEYKCKVSNKALPKPIEKTISKAKGQPREPQVYTLPPSREEMTKNQVSLTCLVKGFYPSDIAVEWESNGQPENNYKTTPPVLDSDGSFFLYSKLTVDKSRWQQGNVFSCSVMHEALHNHYTQKSLSLSP
light: DIVMTQSPATLSLSPGERATLSCTSSQSVYHANWLSWFQQKPGQPPKLLIYWASTLAYGVPSRFSGSGSGTDFTLTISSLQPEDAATYYCAGGYGGGRYAFGQGTKVEIKRTVAAPSVFIFPPSDEQLKSGTASVVCLLNNFYPREAKVQWKVDNALQSGNSQESVTEQDSKDSTYSLSSTLTLSKADYEKHKVYACEVTHQGLSSPVTKSFNRGEC
Molecule B7 registered a Kd of 4 µM.

B8: M103205H795-MY143/M103202L889-SK1 (antibody, human IgG1, kappa)
heavy: QVTLKESGPVLVKPTETLTLTCTVSGIDLSHDDISWVRQAPGKGLEWVGIISYAGSTYYASWAKGRLTISKDTSKNQVVLTMTNMDPVDTATYYCARGVPAYSHGGDLWGQGTLVTVSSASTKGPSVFPLAPSSKSTSGGTAALGCLVKDYFPEPVTVSWNSGALTSGVHTFPAVLQSSGLYSLSSVVTVPSSSLGTQTYICNVNHKPSNTKVDKKVEPKSCDKTHTCPPCPAPELLSGPSVFLFPPKPKDTLMISRTPEVTCVVVDVSEEDPEVKFNWYVDGVEVHNAKTKPREEQYNSTYRVVSVLTVLHQDWLNGKEYKCKVSNKALPAPIEKTISKAKGQPREPQVYTLPPSREEMTKNQVSLTCLVKGFYPSDIAVEWESNGQPENNYKTTPMVLDSDGSFFLYSKLTVDKSRWQQGNVFSCSVMHEALHNHYTQKSLSLSP
light: DIVMTQSPATLSLSPGERATLSCTSSQSVYHANWLSWFQQKPGQPPKLLIYWASTLAYGVPSRFSGSGSGTDFTLTISSLQPEDAATYYCAGGYGGGRYAFGQGTKVEIKRTVAAPSVFIFPPSDEQLKSGTASVVCLLNNFYPREAKVQWKVDNALQSGNSQESVTEQDSKDSTYSLSSTLTLSKADYEKHKVYACEVTHQGLSSPVTKSFNRGEC
In turn, B8 yielded a Kd of 1.3 µM.

B9: M103205H795-MY213/M103202L889-SK1 (antibody, human IgG1, kappa)
heavy: QVTLKESGPVLVKPTETLTLTCTVSGIDLSHDDISWVRQAPGKGLEWVGIISYAGSTYYASWAKGRLTISKDTSKNQVVLTMTNMDPVDTATYYCARGVPAYSHGGDLWGQGTLVTVSSASTKGPSVFPLAPSSKSTSGGTAALGCLVKDYFPEPVTVSWNSGALTSGVHTFPAVLQSSGLYSLSSVVTVPSSSLGTQTYICNVNHKPSNTKVDKKVEPKSCDKTHTCPPCPAPELLNGPSVFLFPPKPKDTLMISRTPEVTCVVVDVSDEDPEVKFNWYVDGVEVHNAKTKPREEQYNSTYRVVSVLTVLHQDWLNGKEYKCKVSNKALPKPIEKTISKAKGQPREPQVYTLPPSREEMTKNQVSLTCLVKGFYPSDIAVEWESNGQPENNYKTTPKVLDSDGSFFLYSKLTVDKSRWQQGNVFSCSVMHEALHNHYTQKSLSLSP
light: DIVMTQSPATLSLSPGERATLSCTSSQSVYHANWLSWFQQKPGQPPKLLIYWASTLAYGVPSRFSGSGSGTDFTLTISSLQPEDAATYYCAGGYGGGRYAFGQGTKVEIKRTVAAPSVFIFPPSDEQLKSGTASVVCLLNNFYPREAKVQWKVDNALQSGNSQESVTEQDSKDSTYSLSSTLTLSKADYEKHKVYACEVTHQGLSSPVTKSFNRGEC
B9 displayed a Kd of 0.52 µM.
